Results from paper PMC9758440.

Biological target: N-terminal SNAP-tagged FGFR1c on the surface of stable COS7 cells (human) (UniProt P11362)
Assay: FRET or BRET

N-terminal SNAP-tagged FGFR1c on the surface of stable COS7 cells (from UniProt P11362 22-822) (receptor)
fold increase of the TR-FRET signal with FGF2: 2.8 fold
